B1: Ad5 fiber protein (natural protein)
chain: MKRARPSEDTFNPVYPYDTETGPPTVPFLTPPFVSPNGFQESPPGVLSLRLSEPLVTSNGMLALKMGNGLSLDEAGNLTSQNVTTVSPPLKKTKSNINLEISAPLTVTSEALTVAAAAPLMVAGNTLTMQSQAPLTVHDSKLSIATQGPLTVSEGKLALQTSGPLTTTDSSTLTITASPPLTTATGSLGIDLKEPIYTQNGKLGLKYGAPLHVTDDLNTLTVATGPGVTINNTSLQTKVTGALGFDSQGNMQLNVAGGLRIDSQNRRLILDVSYPFDAQNQLNLRLGQGPLFINSAHNLDINYNKGLYLFTASNNSKKLEVNLSTAKGLMFDATAIAINAGDGLEFGSPNAPNTNPLKTKIGHGLEFDSNKAMVPKLGTGLSFDSTGAITVGNKNNDKLTLWTTPAPSPNCRLNAEKDAKLTLVLTKCGSQILATVSVLAVKGSLAPISGTVQSAHLIIRFDENGVLLNNSFLDPEYWNFRNGDLTEGTAYTNAVGFMPNLSAYPKSHGKTAKSNIVSQVYLNGDKTKPVTLTITLNGTQETGDTTPSAYSMSFSWDWSGHNYINEIFATSSYTFSYIAQE
notes: source: in Ad5 (E1/E3 deleted) virions, bought: ViraQuest
B2: Ad5 penton base (natural protein)
chain: MRRAAMYEEGPPPSYESVVSAAPVAAALGSPFDAPLDPPFVPPRYLRPTGGRNSIRYSELAPLFDTTRVYLVDNKSTDVASLNYQNDHSNFLTTVIQNNDYSPGEASTQTINLDDRSHWGGDLKTILHTNMPNVNEFMFTNKFKARVMVSRLPTKDNQVELKYEWVEFTLPEGNYSETMTIDLMNNAIVEHYLKVGRQNGVLESDIGVKFDTRNFRLGFDPVTGLVMPGVYTNEAFHPDIILLPGCGVDFTHSRLSNLLGIRKRQPFQEGFRITYDDLEGGNIPALLDVDAYQASLKDDTEQGGGGAGGSNSSGSGAEENSNAAAAAMQPVEDMNDHAIRGDTFATRAEEKRAEAEAAAEAAAPAAQPEVEKPQKKPVIKPLTEDSKKRSYNLISNDSTFTQYRSWYLAYNYGDPQTGIRSWTLLCTPDVTCGSEQVYWSLPDMMQDPVTFRSTRQISNFPVVGAELLPVHSKSFYNDQAVYSQLIRQFTSLTHVFNRFPENQILARPPAPTITTVSENVPALTDHGTLPLRNSIGGVQRVTITDARRRTCPYVYKALGIVSPRVLSSRTF
notes: as for B1

Biological target: T1, Ad5 hexon, in the virion (human adenovirus 5, UniProt P04133 1-952)
T1 construct: source: in Ad5 (E1/E3 deleted) virions, bought: ViraQuest
Experiment: co-IP
Details: both partners purified

T1 sequence (P04133 whole entry): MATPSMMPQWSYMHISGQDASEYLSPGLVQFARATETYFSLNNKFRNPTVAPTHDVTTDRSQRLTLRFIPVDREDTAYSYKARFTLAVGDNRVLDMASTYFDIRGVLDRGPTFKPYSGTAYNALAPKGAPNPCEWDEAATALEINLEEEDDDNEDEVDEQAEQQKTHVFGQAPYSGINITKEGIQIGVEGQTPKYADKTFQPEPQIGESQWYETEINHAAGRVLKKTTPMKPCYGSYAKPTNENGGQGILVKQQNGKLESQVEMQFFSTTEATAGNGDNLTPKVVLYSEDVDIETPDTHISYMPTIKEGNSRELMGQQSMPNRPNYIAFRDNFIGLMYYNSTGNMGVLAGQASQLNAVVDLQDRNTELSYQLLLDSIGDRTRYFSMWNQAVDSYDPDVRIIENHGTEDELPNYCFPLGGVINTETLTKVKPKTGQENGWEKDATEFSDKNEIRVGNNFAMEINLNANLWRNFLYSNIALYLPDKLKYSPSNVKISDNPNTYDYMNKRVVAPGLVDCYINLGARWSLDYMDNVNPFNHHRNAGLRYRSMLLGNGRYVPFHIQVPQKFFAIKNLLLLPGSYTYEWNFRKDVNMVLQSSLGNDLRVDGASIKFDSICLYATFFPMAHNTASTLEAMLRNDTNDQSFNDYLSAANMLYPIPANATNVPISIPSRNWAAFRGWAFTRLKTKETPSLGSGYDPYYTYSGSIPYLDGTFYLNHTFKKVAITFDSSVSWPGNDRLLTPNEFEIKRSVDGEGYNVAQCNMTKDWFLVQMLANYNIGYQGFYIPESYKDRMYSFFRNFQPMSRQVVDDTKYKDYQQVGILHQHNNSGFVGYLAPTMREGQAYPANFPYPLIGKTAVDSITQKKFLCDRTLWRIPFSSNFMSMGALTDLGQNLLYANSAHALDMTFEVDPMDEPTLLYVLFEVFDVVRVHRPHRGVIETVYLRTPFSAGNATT

| Binder | binding result |
| --- | --- |
| B1 | binds |
| B2 | binds |

Reference: publication PMC6461443, “Complement C4 Prevents Viral Infection through Capsid Inactivation” (Cell Host & Microbe, 2019)
